The text below walks through data of patent publication US20030228675.

Data set [1] has as its target GST-hUpf1 1019-1118 (GST fusion protein containing the carboxyl-terminal region of hUpf1, amino acids 1019-1118) (UniProt Q92900).
The subject of data set [2] is GST-p53 1-70 (GST fusion protein containing the first 70 amino acids of p53).

Consider HA-ATMWT (HA-tagged wild-type ATM), for which the “phosphorylation in immune complex kinase assay” value in data set [1] is “this substrate was phosphorylated by both ATM and ATX, with the latter protein kinase showing the higher specific catalytic activity”. Further, the “specific kinase activity in immune complex kinase assay” value in data set [2] is on record as “the specific kinase activity of HA-ATXWT towards GST-p531-70 was significantly higher than that of HA-ATM”.

Take HA-ATXWT (HA-tagged wild-type long ATX): the “phosphorylation in immune complex kinase assay” value in data set [1] is “this substrate was phosphorylated by both ATM and ATX, with the latter protein kinase showing the higher specific catalytic activity”. Also, in data set [2], the “phosphorylation in immune complex kinase assay, compared with GST-hUpf1 1019-1118” value is reported as “GST-p531-70 was more avidly phosphorylated by ATX than was the GST-hUpf11019-1118 substrate” and the “specific kinase activity (ratio of 32P incorporation into substrate to level of HA-tagged protein kinase), relative to ATMWT” value is “the specific kinase activity of ATXWT was approximately 3.5-fold higher than that of ATMWT”. In addition, in the data set on GST-p53 1-70 (S15A), the “phosphorylation in immune complex kinase assay” value was “phosphorylation of GST-p531-70 by ATXWT was nearly abolished by substitution of the Ser-15 residue in p53 with Ala”.
